Test results published in publication PMC12529457, “Selection of DNA Aptamers Against Parathyroid Hormone for Electrochemical Impedimetric Biosensor System Development”.

Legend:
Assay in all cases: fluorescent magnetic bead binding assay; peptide on beads, aptamer 100-2500 nM; Bead assay: SELEX conditions (PBS, room temperature), 30 min incubation then wash, pH not stated; EIS: 30 min at ambient temperature, PBS wash, read in 0.1 M KCl with 5 mM ferri/ferrocyanide
Settings in all cases: protein: commercial; tags: none stated; amine-coupled to carboxy magnetic beads
PTH (53-84) = target: T1, PTH (53-84) (UniProt P01270 84-115)
T1 chain: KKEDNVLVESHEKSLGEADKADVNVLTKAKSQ

PTH (1-84) = target: T2, PTH (1-84) (UniProt P01270 32-115)
T2 sequence: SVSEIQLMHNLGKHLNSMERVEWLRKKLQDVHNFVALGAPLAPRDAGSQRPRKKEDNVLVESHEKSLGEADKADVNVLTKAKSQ

PTH (1-34) = target: T3, PTH (1-34) (UniProt P01270 32-65)
T3 chain: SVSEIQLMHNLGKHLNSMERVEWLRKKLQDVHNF

GCGTGGTATGTGCGTCGTCGCTAATGAATTTGTAGCCTAC (ssDNA) [Aptamer-PTH (53-84)]
Kd (PTH (53-84)): 220 ± 57.5 nM

TATTGGTATGTGCGTCGTCGGTGACCTCTTTCACGGCCGG (ssDNA) [Aptamer-PTH (1-84)]
Kd (PTH (1-84)): 340 ± 23.3 nM

GCGTGGTATGTGCATCGTCAGTGAGGGGTTGGCGGCCGAG (ssDNA) [Aptamer-PTH (1-34)]
Kd (PTH (1-34)): 516 ± 41 nM
